{"source": "paper PMC9524020", "about": "(2022)", "experiment_in_all_cases": "SPR", "key": {"[1]": {"target": "FcγRIIIa-158V, FcγRIIIa-CHO^WT (human)", "sequence (chain, as listed by the source)": "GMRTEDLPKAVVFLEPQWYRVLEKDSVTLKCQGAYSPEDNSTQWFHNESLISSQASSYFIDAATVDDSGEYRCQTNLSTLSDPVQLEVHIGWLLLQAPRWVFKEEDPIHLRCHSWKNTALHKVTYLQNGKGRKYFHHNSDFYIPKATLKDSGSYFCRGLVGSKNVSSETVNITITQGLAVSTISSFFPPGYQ"}, "[2]": {"target": "FcγRIIIa-158V, FcγRIIIa-G2FS(2-6) (human)", "sequence (chain, as listed by the source)": "as above"}, "[3]": {"target": "FcγRIIIa-158V, FcγRIIIa-Afucosylated (human)", "sequence (chain, as listed by the source)": "as above"}, "[4]": {"target": "FcγRIIIa-158V, FcγRIIIa-HEK^WT (human)", "sequence (chain, as listed by the source)": "as above"}, "[5]": {"target": "FcγRIIIa-158V, FcγRIIIa-Monoantennae (human)", "sequence (chain, as listed by the source)": "as above"}, "[6]": {"target": "FcγRIIIa-158V, FcγRIIIa-Hybrid (human)", "sequence (chain, as listed by the source)": "as above"}, "[7]": {"target": "FcγRIIIa-158V, FcγRIIIa-Oligomannose (human)", "sequence (chain, as listed by the source)": "as above"}}}
{"binder": "IgG1-CHO^WT (anti-rabies human IgG1 mAb SO57 from the CHO wildtype clone) (antibody, N-glycan at Asn297: dominant G0F glycans with small amounts of G1F) chain 1: QVQLVQSGAEVKKPGSSVKVSCKASGGTFNRYTVNWVRQAPGQGLEWMGGIIPIFGTANYAQRFQGRLTITADESTSTAYMELSSLRSDDTAVYFCARENLDNSGTYYYFSGWFDPWGQGTLVTVSS chain 2: QSALTQPRSVSGSPGQSVTISCTGTSSDIGGYNFVSWYQQHPGKAPKLMIYDATKRPSGVPDRFSGSKSGNTASLTISGLQAEDEADYYCCSYAGDYTPGVVFGGGTKLTVL", "values": [{"measurement": "Kd", "setting": "[1]", "value": 490, "unit": "nM"}, {"measurement": "Kd", "setting": "[2]", "value": 440, "unit": "nM"}, {"measurement": "Kd", "setting": "[3]", "value": 460, "unit": "nM"}, {"measurement": "Kd", "setting": "[4]", "value": 440, "unit": "nM"}, {"measurement": "Kd", "setting": "[5]", "value": 490, "unit": "nM"}, {"measurement": "Kd", "setting": "[6]", "value": 460, "unit": "nM"}, {"measurement": "Kd", "setting": "[7]", "value": 240, "unit": "nM"}]}
